Source: paper PMC2018633 (Nucleic Acids Research, 2007)

Assays:
P. abyssi aCBF5 protein = target: T1, P. abyssi aCBF5 protein (Pyrococcus abyssi, UniProt Q9V1A5 1-334); test: cell-based or functional assay
T1 sequence (looked up): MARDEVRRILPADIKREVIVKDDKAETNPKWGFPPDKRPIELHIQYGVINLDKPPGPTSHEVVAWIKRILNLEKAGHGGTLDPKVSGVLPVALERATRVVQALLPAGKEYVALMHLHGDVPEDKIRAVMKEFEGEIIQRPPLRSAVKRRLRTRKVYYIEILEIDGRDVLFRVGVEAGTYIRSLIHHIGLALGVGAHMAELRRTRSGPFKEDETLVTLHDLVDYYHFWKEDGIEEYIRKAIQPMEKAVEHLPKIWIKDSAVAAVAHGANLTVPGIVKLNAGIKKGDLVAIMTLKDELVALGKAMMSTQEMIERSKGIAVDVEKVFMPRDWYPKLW

aCBF5 R202A variant = target: T2, aCBF5 R202A variant (Pyrococcus abyssi, UniProt Q9V1A5 1-334, R202A); test: native gel or EMSA
T2 sequence (looked up): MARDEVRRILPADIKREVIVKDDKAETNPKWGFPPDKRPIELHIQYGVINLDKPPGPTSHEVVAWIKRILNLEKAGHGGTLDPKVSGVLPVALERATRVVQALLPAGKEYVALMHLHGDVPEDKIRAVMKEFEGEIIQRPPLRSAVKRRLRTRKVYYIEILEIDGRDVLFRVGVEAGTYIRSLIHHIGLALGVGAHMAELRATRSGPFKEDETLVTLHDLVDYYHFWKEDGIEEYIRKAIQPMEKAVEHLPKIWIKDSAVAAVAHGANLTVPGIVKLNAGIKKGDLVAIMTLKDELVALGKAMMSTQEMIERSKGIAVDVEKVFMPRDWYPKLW

aCBF5 K53A variant = target: T3, aCBF5 K53A variant (Pyrococcus abyssi, UniProt Q9V1A5 1-334, K53A); test: native gel or EMSA
T3 sequence (looked up): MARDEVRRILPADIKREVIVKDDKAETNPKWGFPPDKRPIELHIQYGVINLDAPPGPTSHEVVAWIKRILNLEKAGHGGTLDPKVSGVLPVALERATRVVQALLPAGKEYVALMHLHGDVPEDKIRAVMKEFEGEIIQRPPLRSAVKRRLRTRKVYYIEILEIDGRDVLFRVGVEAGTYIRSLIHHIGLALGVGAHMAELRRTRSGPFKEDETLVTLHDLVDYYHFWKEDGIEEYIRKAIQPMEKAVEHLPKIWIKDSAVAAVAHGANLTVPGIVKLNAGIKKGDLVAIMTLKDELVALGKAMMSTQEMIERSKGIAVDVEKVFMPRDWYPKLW

aCBF5 H77A variant = target: T4, aCBF5 H77A variant (Pyrococcus abyssi, UniProt Q9V1A5 1-334, H77A); test: native gel or EMSA
T4 sequence (looked up): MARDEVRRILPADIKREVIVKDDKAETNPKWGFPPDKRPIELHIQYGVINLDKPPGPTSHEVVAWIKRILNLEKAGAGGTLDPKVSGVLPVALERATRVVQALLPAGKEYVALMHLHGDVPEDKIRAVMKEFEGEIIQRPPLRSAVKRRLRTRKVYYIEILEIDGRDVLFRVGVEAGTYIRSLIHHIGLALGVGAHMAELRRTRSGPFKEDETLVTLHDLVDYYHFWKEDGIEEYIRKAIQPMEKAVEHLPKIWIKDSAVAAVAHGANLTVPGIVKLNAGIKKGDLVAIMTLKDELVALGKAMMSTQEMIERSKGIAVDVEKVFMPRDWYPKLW

- level of aCBF5-tRNAAsp complexes by EMSA, with against without aNOP10 (P. abyssi aCBF5 protein): ~4 fold
- binding result (aCBF5 R202A variant): binds
- binding result (aCBF5 K53A variant): binds
- binding result (aCBF5 H77A variant): binds
B1: P. abyssi aNOP10 protein (natural protein, Pyrococcus abyssi, UniProt Q9V0E3 1-60, looked up)
chain: MRFRIRKCPKCGRYTLKETCPVCGEKTKVAHPPRFSPEDPYGEYRRRLKRELLGIGRKEK
